# Measured values: patent US20240239890A1 (Chugai, published 2024)
# T1: Human RNF43 extracellular domain (amino acids 1-190) with a Flag tag on its C terminus (human, UniProt Q68DV7 24-190)
# T1 construct: also called recombinant human RNF43; human RNF43 ECD
# T1 sequence: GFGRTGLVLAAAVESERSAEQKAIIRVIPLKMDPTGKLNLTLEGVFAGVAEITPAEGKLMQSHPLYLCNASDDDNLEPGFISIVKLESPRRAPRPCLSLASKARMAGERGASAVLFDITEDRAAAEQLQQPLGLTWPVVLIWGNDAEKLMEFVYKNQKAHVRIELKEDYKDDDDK
# B1: RNN0246jj (antibody, human IgG1, kappa, N297A)
# heavy: QSVEESGGRLVTPDETLTLTCTVSGFSLNNYHMIWVRQAPGEGLEYIGFINTGGSAYYANWAKGRFTISKTSTTVDLKITSPTTEDTATYFCASVSWRTDYSFELWGPGTLVTVSSASTKGPSVFPLAPSSRSTSESTAALGCLVKDYFPEPVTVSWNSGALTSGVHTFPAVLQSSGLYSLSSVVTVPSSSLGTKTYTCNVDHKPSNTKVDKRVEPKSCDKTHTCPPCPAPELRRGPKVFLFPPKPKDTLMISRTPEVTCVVVDVSQEDPEVQFNWYVDGVEVHNAKTKPREEQFASTYRVVSVLTVLHQDWLNGKEYKCKVSNKGLPSSIEKTISKAKGQPREPQVYTLPPSREEMTKNQVSLTCLVKGFYPSDIAVEWESNGQPENNYKTTPPYLDSDGSFFLYSKLTVDKSRWQQGNVFSCSVMHEALHNHYTQESLSLSPHHHHHHHH
# light: AQVLTQTPSPVSAAVGGTVTISCQASQSVYANNRLAWFQQKPGQPPKLLIYSASTLASGVPSRFKGSGSGTQFTLTISGVQCDDAATYYCAGAYTGNIYTFGGGTKVEIKRTVAAPSVFIFPPSDEQLKSGTASVVCLLNNFYPREAKVQWKVDNALQSGNSQESVTEQDSKDCTYSLSSTLTLSKADYEKHKVYACEVTHQGLSSPVTKSFNRGEC
# notes: Rabbit variable regions recombined with BS03aHis heavy-chain constant region and hk0MC light-chain constant region; also called anti-RNF43 monospecific antibody
# B2: RNN0192nn (antibody, human IgG1, kappa, N297A)
# heavy: QEQLVESGGGLVQPEGSLTLTCTASGFSFSSRYYMCWVRQAPGKGLEWIGCIYTGSGSTYYASWAKGRVTISKTSSTTVTLQMTSLTAADTATYFCAREAGSFNLWGPGTLVTVSSASTKGPSVFPLAPSSRSTSESTAALGCLVKDYFPEPVTVSWNSGALTSGVHTFPAVLQSSGLYSLSSVVTVPSSSLGTKTYTCNVDHKPSNTKVDKRVEPKSCDKTHTCPPCPAPELRRGPKVFLFPPKPKDTLMISRTPEVTCVVVDVSQEDPEVQFNWYVDGVEVHNAKTKPREEQFASTYRVVSVLTVLHQDWLNGKEYKCKVSNKGLPSSIEKTISKAKGQPREPQVYTLPPSREEMTKNQVSLTCLVKGFYPSDIAVEWESNGQPENNYKTTPPYLDSDGSFFLYSKLTVDKSRWQQGNVFSCSVMHEALHNHYTQESLSLSPHHHHHHHH
# light: DVVMTQTPASVSEPVGGTVTIKCQASQSIYSGLAWYQQKPGQPPKLLIYSASKLASGVPSRFKGSGSGTEYTLTISDLECADAATYYCQNYYYGISNGWTFGGGTKVEIKRTVAAPSVFIFPPSDEQLKSGTASVVCLLNNFYPREAKVQWKVDNALQSGNSQESVTEQDSKDCTYSLSSTLTLSKADYEKHKVYACEVTHQGLSSPVTKSFNRGEC
# notes: as for B1
# B3: RNN0193jj (antibody, human IgG1, kappa, N297A)
# heavy: QSLEESGGDLVKPGASLTLTCTASGFSFSNNYWICWVRQAPGKGPEWIACIYTGDGDTDYASWAKGRFTISKTSSTTVTLQMTSLTAADTATYFCAREAGTVDGVWNYVFNLWGPGTLVTVSSASTKGPSVFPLAPSSRSTSESTAALGCLVKDYFPEPVTVSWNSGALTSGVHTFPAVLQSSGLYSLSSVVTVPSSSLGTKTYTCNVDHKPSNTKVDKRVEPKSCDKTHTCPPCPAPELRRGPKVFLFPPKPKDTLMISRTPEVTCVVVDVSQEDPEVQFNWYVDGVEVHNAKTKPREEQFASTYRVVSVLTVLHQDWLNGKEYKCKVSNKGLPSSIEKTISKAKGQPREPQVYTLPPSREEMTKNQVSLTCLVKGFYPSDIAVEWESNGQPENNYKTTPPYLDSDGSFFLYSKLTVDKSRWQQGNVFSCSVMHEALHNHYTQESLSLSPHHHHHHHH
# light: AQVLTQTPSPVSAAVGGTVTISCQSSQSVYNDNLAWFQQKPGQPPKLLIYDASTLASGVPSRFKGSGSGTQFTLTISKLQCDDAATYYCQGVYIGHIFTFGGGTKVEIKRTVAAPSVFIFPPSDEQLKSGTASVVCLLNNFYPREAKVQWKVDNALQSGNSQESVTEQDSKDCTYSLSSTLTLSKADYEKHKVYACEVTHQGLSSPVTKSFNRGEC
# notes: as for B1
# B4: RNN0187jj (antibody, human IgG1, kappa, N297A)
# heavy: QSLEESGGDLVKPGASLTLTCTASGFSFNSAYYMCWVRQAPGKGLEWIGCIYTGSGSTYYASWAKGRFTISKTSSTTVTLQMTSLTVADTATYFCARSGVSTYYTLWGPGTLVTVSSASTKGPSVFPLAPSSRSTSESTAALGCLVKDYFPEPVTVSWNSGALTSGVHTFPAVLQSSGLYSLSSVVTVPSSSLGTKTYTCNVDHKPSNTKVDKRVEPKSCDKTHTCPPCPAPELRRGPKVFLFPPKPKDTLMISRTPEVTCVVVDVSQEDPEVQFNWYVDGVEVHNAKTKPREEQFASTYRVVSVLTVLHQDWLNGKEYKCKVSNKGLPSSIEKTISKAKGQPREPQVYTLPPSREEMTKNQVSLTCLVKGFYPSDIAVEWESNGQPENNYKTTPPYLDSDGSFFLYSKLTVDKSRWQQGNVFSCSVMHEALHNHYTQESLSLSPHHHHHHHH
# light: DVVMTQTPSSVSAAVGGTVTIKCQASQSIYSGLAWYQQKPGQPPKLLIYGASTLASGVPSRFKGSGSGTEYTLTISGVQCDDAATYYCQNNYYTPSNGWAFGGGTKVEIKRTVAAPSVFIFPPSDEQLKSGTASVVCLLNNFYPREAKVQWKVDNALQSGNSQESVTEQDSKDCTYSLSSTLTLSKADYEKHKVYACEVTHQGLSSPVTKSFNRGEC
# notes: as for B1
# B5: RNN0276oo (antibody, human IgG1, kappa, N297A, V domains shown)
# VH: QSVEESGGRLVTPGTPLTLTCTVSGFSLSSYAMNWVRQAPGKGLEWIGVIGSSGRTYYASWAKGRFTSSKTSTTVVLKITSPTTEDTATYFCARGPYDSYGDGGVTGDLWGPGTLVTVSS
# VL: AQVLTQTPSPVSAAVGGTVTINCQSSQSVYNNNNLAWYQQKPGQPPKLLIYRASTLASGVPSRFKGSGSGTQFTLTISGVQCEDAATYYCQGGYDCSSADCDTFGGGTKVEIKR
# notes: as for B1
# B6: RNN0275kk (antibody, human IgG1, kappa, N297A, V domains shown)
# VH: QSVEESGGRLVTPGTPLTLTCTVSGWTINSYHMCWVRQAPGEGLEWIATITTGGVTFYANWARGRFTISKTSTTVDLKMTSLTAADTATYFCVRGPDYTYFDLWGPGTLVTVSS
# VL: NVVLTQTPSSVSAAVGGTVTIKCQASQSISDTLAWYQQKPGQPPKLLIYYASDLASGVPSRFSGSGSGTEFTLTINDLECADAATYYCQSYVYSNGIDNTFGGGTKVEIKR
# notes: as for B1
# B7: RNN0198oo (antibody, human IgG1, kappa, N297A, V domains shown)
# VH: QEQLVESGGGLVQPEGSLTLTCKASGLDFSSSYWMCWVRQAPGKGLEWIGCIYTGSSGSTYYASWAKGRFTISKTSSTTVTLQMTSLTAADTATYFCARTGSRYWNYFELWGPGTLVTVSS
# VL: DVVMTQTPPSVSAAVGGTVTIKCQASQSIYRGLAWYQQKPGQPPNLLIYSASTLASGVPSRFSGSGSGTEYTLTISDLECADAATYYCQSYYYSSSNGWPFGGGTKVEIKR
# notes: as for B1
# B8: RNN0242nn (antibody, human IgG1, kappa, N297A)
# heavy: QQQLEEYGGDLVQPEGSLTLTCKASGLDFSSSYWMCWVRQAPGKGLEWIACIYTGSSGSTSYASWAKGRFTISKTSSTTVTLQMTSLTAADTATYFCARDYDYTAYAYGIMSLWGPGTLVTVSSASTKGPSVFPLAPSSRSTSESTAALGCLVKDYFPEPVTVSWNSGALTSGVHTFPAVLQSSGLYSLSSVVTVPSSSLGTKTYTCNVDHKPSNTKVDKRVEPKSCDKTHTCPPCPAPELRRGPKVFLFPPKPKDTLMISRTPEVTCVVVDVSQEDPEVQFNWYVDGVEVHNAKTKPREEQFASTYRVVSVLTVLHQDWLNGKEYKCKVSNKGLPSSIEKTISKAKGQPREPQVYTLPPSREEMTKNQVSLTCLVKGFYPSDIAVEWESNGQPENNYKTTPPYLDSDGSFFLYSKLTVDKSRWQQGNVFSCSVMHEALHNHYTQESLSLSPHHHHHHHH
# light: AEIVMTQTPSSKSAAVGDTVTIKCQASQSITSYLSWYQQKPGQPPKLLIYRASTLASGVPSRFKGSGSGTQFTLTISDLECADAATYYCQSNYGSYSTNYGVTFGGGTKVEIKRTVAAPSVFIFPPSDEQLKSGTASVVCLLNNFYPREAKVQWKVDNALQSGNSQESVTEQDSKDCTYSLSSTLTLSKADYEKHKVYACEVTHQGLSSPVTKSFNRGEC
# notes: as for B1
# B9: RNN0191kk (antibody, human IgG1, kappa, N297A, V domains shown)
# VH: QSLEESGGRLVTPGGSLTLTCTASGFSLSSYAIGWVRQAPGKGLEYVGIIERNDKTAYASWAKGRFTISRTSTTVDLKMTSLTTEDTATYFCARGYLDNSPLWGPGTLVTVSS
# VL: AIEMTQTPASVSAAVGGTVTINCQSSQSVGDNIWLGWYQQKPGQPPKLLIRYASTLASGVPSRFKGSGSGTQFTLTISDLECDDAATYYCAGAYNGLIYSFGGGTKVEIKR
# notes: as for B1
# B10: RNN0207ii (antibody, human IgG1, kappa, N297A)
# heavy: QEQLEESGGRLVTPGGSLTLTCTASGFSLSSYVISWVRQAPGEGLEYIGYVSTGGSPYYASWAKGRFTISRTSTAVDLKMTSLTASDTATYFCARYGYLDYSGLDLWGQGTLVTVSSASTKGPSVFPLAPSSRSTSESTAALGCLVKDYFPEPVTVSWNSGALTSGVHTFPAVLQSSGLYSLSSVVTVPSSSLGTKTYTCNVDHKPSNTKVDKRVEPKSCDKTHTCPPCPAPELRRGPKVFLFPPKPKDTLMISRTPEVTCVVVDVSQEDPEVQFNWYVDGVEVHNAKTKPREEQFASTYRVVSVLTVLHQDWLNGKEYKCKVSNKGLPSSIEKTISKAKGQPREPQVYTLPPSREEMTKNQVSLTCLVKGFYPSDIAVEWESNGQPENNYKTTPPYLDSDGSFFLYSKLTVDKSRWQQGNVFSCSVMHEALHNHYTQESLSLSPHHHHHHHH
# light: AQVLTQTPSSTSTAVGGTVTINCQSSQSVYEYNHLSWFQQKPGQPPKLLIYGASTLASGVPSRFKGSGSGTQFTLTISDLECDDAATYYCQGAYYGVVDTFGGGTKVEIKRTVAAPSVFIFPPSDEQLKSGTASVVCLLNNFYPREAKVQWKVDNALQSGNSQESVTEQDSKDCTYSLSSTLTLSKADYEKHKVYACEVTHQGLSSPVTKSFNRGEC
# notes: as for B1
# Target: T1, Human RNF43 extracellular domain (amino …)
# Assay: SPR, Biacore T200, antibody captured by anti-human Fc, RNF43 as analyte, pH 7.4, 25 C
# Experimental: The affinity of the anti-RNF43 monospecific antibodies towards human RNF43 at pH 7.4 was determined at 25 degrees C. using the Biacore T200 instrument (GE Healthcare). Anti-human Fc (GE Healthcare) was immobilized onto all flow cells of a CM4 sensor chip using an amine coupling kit (GE Healthcare). All antibodies and analytes were prepared in ACES at pH 7.4 containing 20 mM ACES, 150 mM NaCl, 0.05% Tween 20, 0.005% NaN₃. Each antibody was captured onto the sensor surface by anti-human Fc. Antibody capture levels were aimed at 312 resonance unit (RU). Recombinant human RNF43 was injected at 200 nM, 50 nM, and 12.5 nM prepared by a four-fold serial dilution, followed by dissociation. The sensor surface was regenerated each cycle with 3M MgCl2. Binding affinity was determined by processing and fitting the data to a 1:1 binding model using the Biacore T200 Evaluation software, version 2.0 (GE Healthcare).
Kd,koff,kon,Binder
0.0486 µM,0.00944 s⁻¹,194000 M⁻¹ s⁻¹,B1
0.000928 µM,0.00558 s⁻¹,6.02e+06 M⁻¹ s⁻¹,B2
0.0635 µM,0.0458 s⁻¹,721000 M⁻¹ s⁻¹,B3
0.017 µM,0.0467 s⁻¹,2.75e+06 M⁻¹ s⁻¹,B4
0.117 µM,0.0227 s⁻¹,193000 M⁻¹ s⁻¹,B5
0.0656 µM,0.131 s⁻¹,1.99e+06 M⁻¹ s⁻¹,B6
0.00111 µM,0.00291 s⁻¹,2.63e+06 M⁻¹ s⁻¹,B7
0.0333 µM,0.0235 s⁻¹,704000 M⁻¹ s⁻¹,B8
0.0711 µM,0.294 s⁻¹,4.14e+06 M⁻¹ s⁻¹,B9
0.0731 µM,0.106 s⁻¹,1.45e+06 M⁻¹ s⁻¹,B10
